{"source": "paper PMC11341838", "about": "(Nature Communications, 2024)", "biological_target": "T1, Pf3D7 recombinant AMA1, full ectodomain (domain I, II and III) (P. falciparum (strain 3D7))", "T1 chain": "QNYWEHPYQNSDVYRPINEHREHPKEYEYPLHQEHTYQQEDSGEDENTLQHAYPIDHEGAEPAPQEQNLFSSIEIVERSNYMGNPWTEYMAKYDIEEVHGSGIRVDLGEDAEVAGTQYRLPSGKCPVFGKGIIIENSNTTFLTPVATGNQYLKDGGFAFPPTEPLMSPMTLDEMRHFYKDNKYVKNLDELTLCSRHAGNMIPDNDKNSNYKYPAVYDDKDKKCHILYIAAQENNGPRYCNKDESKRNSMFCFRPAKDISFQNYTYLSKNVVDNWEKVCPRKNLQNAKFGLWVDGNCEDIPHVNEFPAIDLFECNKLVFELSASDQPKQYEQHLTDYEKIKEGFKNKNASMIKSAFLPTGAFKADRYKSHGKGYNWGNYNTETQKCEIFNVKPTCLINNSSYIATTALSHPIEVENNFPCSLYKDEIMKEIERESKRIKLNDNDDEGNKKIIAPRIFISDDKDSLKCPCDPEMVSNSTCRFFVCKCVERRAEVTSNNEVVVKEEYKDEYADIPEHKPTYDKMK", "assay": "ELISA"}
{"binder": "mAb 1F9 (antibody, V domains shown) VH: EVQLQQSGAELLKPGASVKLSCIVSGFKIKDTSMHWVKQRPEQGLEWIGRIDPANDNSEYDPKFQGKATITADTSSNTAYLQLSSLTSEDTAVYYCTLSHFWGQGTTLTVSS VL: SIVMTQTPKFLPVSAGDRVTIICKASQSVSNDVVWYQQKPGQSPKLLIYYASIRYTGVPDRFTGSGYGTDFTFTISTVQVEDLAVYFCQQGFSSPRTFGGGTKLEIN", "values": [{"measurement": "binding result", "result": "binds"}]}
